T1: DLL4 N-EGF2 (Rattus norvegicus, UniProt D3ZHH1)
T1 chain: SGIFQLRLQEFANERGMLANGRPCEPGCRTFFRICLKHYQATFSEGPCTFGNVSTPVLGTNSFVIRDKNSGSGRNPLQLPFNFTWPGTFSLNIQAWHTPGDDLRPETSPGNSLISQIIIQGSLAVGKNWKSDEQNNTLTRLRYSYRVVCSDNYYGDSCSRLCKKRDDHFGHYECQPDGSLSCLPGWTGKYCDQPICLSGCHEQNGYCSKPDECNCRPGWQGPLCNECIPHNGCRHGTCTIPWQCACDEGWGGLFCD

B1: Notch1 EGF10-14 (peptide)
chain: CLTLL
B2: Notch1 EGF1-14 (peptide)
chain: MPRLLAPLLCLTLL
B3: Notch1 411-530 (protein)
chain: QDVDECALGANPCEHAGKCLNTLGSFECQCLQGYTGPRCEIDVNECISNPCQNDATCLDQIGEFQCICMPGYEGVYCEINTDECASSPCLHNGRCVDKINEFLCQCPKGFSGHLCQYDVD

Results on three molecules are retold here after article PMC4445638 (2015).

This test concerns the target T1, DLL4 N-EGF2. The test can be described thus: SPR. (SPR reads the build-up and loss of mass on a sensor chip optically.)
As a reminder, the Kd is the free concentration of one partner at which half of the binding sites on the other are occupied at equilibrium, for simple one-to-one binding. Read a high Kd as weaker binding. The molecule B1 registered a Kd of 8.6 µM.
The figure for B2 is 12.7 µM.
The figure for B3 is 7.5 µM.
